# Measured values: US20080193971
# B1: human lactoferrin (protein)
# chain: GRRRSVQWCAVSQPEATKCFQWQRNMRKVRGPPVSCIKRDSPIQCIQAIAENRADAVTLDGGFIYEAGLAPYKLRPVAAEVYGTERQPRTHYYAVAVVKKGGSFQLNELQGLKSCHTGLRRTAGWNVPIGTLRPFLNWTGPPEPIEAAVARFFSASCVPGADKGQFPNLCRLCAGTGENKCAFSSQEPYFSYSGAFKCLRDGAGDVAFIRESTVFEDLSDEAERDEYELLCPDNTRKPVDKFKDCHLARVPSHAVVARSVNGKEDAIWNLLRQAQEKFGKDKSPKFQLFGSPSGQKDLLFKDSAIGFSRVPPRIDSGLYLGSGYFTAIQNLRKSEEEVAARRARVVWCAVGEQELRKCNQWSGLSEGSVTCSSASTTEDCIALVLKGEADAMSLDGGYVYTAGKCGLVPVLAENYKSQQSSDPDPNCVDRPVEGYLAVAVVRRSDTSLTWNSVKGKKSCHTAVDRTAGWNIPMGLLFNQTGSCKFDEYFSQSCAPGSDPRSNLCALCIGDEQGENKCVPNSNERYYGYTGAFRCLAENAGDVAFVKDVTVLQNTDGNNNEAWAKDLKLADFALLCLDGKRKPVTEARSCHLAMAPNHAVVSRMDKVERLKQVLLHQQAKFGRNGSDCPDKFCLFQSETKNLLFNDNTECLARLHGKTTYEKYLGPQYVAGITNLKKCSTSPLLEACEFLRK
# Experiments:
# [1] = target: T1, recombinant App (Adhesion and penetration protein)
# T1 chain: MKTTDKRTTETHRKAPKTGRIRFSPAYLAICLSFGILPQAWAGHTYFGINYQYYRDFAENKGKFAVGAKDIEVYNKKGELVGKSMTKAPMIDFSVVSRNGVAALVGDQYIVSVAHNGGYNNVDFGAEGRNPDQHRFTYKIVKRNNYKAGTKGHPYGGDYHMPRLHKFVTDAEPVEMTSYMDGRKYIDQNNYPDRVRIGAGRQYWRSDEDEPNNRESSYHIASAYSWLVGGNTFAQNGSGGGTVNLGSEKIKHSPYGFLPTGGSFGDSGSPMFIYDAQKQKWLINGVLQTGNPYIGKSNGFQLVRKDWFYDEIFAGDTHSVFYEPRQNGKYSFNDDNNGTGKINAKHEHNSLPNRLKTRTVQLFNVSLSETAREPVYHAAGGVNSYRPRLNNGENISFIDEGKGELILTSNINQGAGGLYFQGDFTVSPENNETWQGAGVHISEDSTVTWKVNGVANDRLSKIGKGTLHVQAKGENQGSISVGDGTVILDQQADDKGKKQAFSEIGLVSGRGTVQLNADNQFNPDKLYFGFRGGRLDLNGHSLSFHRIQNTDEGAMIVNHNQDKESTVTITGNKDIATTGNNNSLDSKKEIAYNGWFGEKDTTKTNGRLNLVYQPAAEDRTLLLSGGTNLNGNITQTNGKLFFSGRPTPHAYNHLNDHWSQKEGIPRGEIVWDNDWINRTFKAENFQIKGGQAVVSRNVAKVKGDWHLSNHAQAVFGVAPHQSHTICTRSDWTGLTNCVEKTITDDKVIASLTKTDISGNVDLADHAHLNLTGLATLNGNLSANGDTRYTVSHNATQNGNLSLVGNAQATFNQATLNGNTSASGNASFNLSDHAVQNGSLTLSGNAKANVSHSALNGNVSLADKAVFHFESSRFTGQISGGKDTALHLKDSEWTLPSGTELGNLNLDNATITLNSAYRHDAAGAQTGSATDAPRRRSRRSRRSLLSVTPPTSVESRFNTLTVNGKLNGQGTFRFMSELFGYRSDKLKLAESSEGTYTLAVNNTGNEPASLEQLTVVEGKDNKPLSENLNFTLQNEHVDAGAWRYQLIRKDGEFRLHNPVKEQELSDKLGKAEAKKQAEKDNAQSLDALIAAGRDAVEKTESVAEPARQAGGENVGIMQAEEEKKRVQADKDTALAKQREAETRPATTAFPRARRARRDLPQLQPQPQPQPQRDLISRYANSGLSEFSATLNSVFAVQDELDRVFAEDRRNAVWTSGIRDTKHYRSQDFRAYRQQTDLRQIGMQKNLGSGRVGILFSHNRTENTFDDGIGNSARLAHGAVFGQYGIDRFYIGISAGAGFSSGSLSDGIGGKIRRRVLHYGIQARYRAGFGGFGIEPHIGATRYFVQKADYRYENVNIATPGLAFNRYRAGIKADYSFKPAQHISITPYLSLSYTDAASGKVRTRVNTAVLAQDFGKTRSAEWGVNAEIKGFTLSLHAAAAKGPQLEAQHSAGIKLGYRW
# [2] = target: T2, meningococcal protein 287 (purified)
# T2 chain: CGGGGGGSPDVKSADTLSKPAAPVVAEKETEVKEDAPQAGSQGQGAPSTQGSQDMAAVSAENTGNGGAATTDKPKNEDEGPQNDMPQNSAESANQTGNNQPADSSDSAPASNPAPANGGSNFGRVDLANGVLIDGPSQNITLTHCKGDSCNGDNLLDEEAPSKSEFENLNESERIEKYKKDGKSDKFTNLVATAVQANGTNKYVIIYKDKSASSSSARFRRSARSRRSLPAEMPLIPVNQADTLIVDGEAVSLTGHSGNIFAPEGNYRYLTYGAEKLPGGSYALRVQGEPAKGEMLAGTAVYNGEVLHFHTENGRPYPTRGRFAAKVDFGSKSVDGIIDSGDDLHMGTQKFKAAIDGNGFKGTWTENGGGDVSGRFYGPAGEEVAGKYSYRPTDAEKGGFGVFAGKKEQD
# [3] = target: T3, GNA1870 surface-exposed lipoprotein, Q9JXV4
# T3 chain: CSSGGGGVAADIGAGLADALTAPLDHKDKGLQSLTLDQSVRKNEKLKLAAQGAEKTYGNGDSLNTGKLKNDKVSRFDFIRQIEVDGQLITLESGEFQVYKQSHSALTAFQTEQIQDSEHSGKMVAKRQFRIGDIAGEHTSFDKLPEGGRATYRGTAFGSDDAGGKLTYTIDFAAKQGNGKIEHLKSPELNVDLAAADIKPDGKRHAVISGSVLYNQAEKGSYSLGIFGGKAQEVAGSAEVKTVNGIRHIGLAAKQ
protein,measurement,setting,value
B1,proteolytic cleavage (western blot with anti-App),[1],the App antigen was cleaved in different fragments
same,proteolytic cleavage (SDS-PAGE and western blot with rabbit anti-287),[2],Lane 3 shows definite cleavage of protein 287
same,share of N-terminus RSLPAEMPL in the ~19 kDa cleavage fragment,[2],RSLPAEMPL (˜30%)
same,share of N-terminus SLPAEMPLI in the ~19 kDa cleavage fragment,[2],SLPAEMPLI (˜70%)
same,proteolytic degradation on meningococci (western blot with anti-GNA1870),[3],lactoferrin treatment under conditions which degrade App had no effect on ONA1870
